Data set [1] deals with murine DNA 5-C-MTase. The data set is described as follows: Methylation assay: methyl transfer from [methyl-3H]AdoMet to ODNs by DNA methyltransferase from Friend erythroleukemia cell nuclei. To be noted: for DNA METHYLASE (FL) SUBSTRATE ACTIVITY, ACTIVITY (CPM): Table 4, single and double stranded constructs, average of 2 expts, background 1813. Format: biochemical. The protocol: The phosphoramidite of 5-fluorodeoxycytidine (5FdC) and unmodified 5-methyl deoxycytosine (5MdC) and 5FC-containing ODNs were synthesized and purified as described in Marasco, C. J. et al., J. Org. […] 5MdC phosphoramidite is commercially available. ss ODNs were heated to 90° C. for 10 min and quickly chilled on ice immediately prior to assay. […] For ds ODNs, an equimolar mixture of complementary ODNs was heated to 90° C. for 10 min and slowly cooled to room temperature.
Preparation of Murine DNA 5-C-MTase. The DNA 5-C-MTase used in these studies was the 100,000×g supernatant of a 0.3M NaCl extract of Friend erythroleukemia cell nuclei.
Methylation Assay. Reaction mixtures (50 μl ) in 0.1M imidazole, pH 7.4/20 mM EDTA/0.5 mM dithiothreitol contained 0.5 μg of each ODN indicated, ≈0.6 units of DNA 5-C-MTase (1 unit transfers 1 pmol to A (AS)·A'Mp (M1) per min; see Table 7), and 2.8 μCi (1 Ci=37 GBq) of [methyl-^3 H]AdoMet (AdoMet=S-adenosylmethionine) (8 μM). […] For accuracy, methylation rates <5 pmol/30 min were measured in quadrupled reaction mixtures (200 μl ). After incubation for 30 min at 37° C., ODNs were processed for quantitation of radiolabel as described (20) with 25 μg of salmon sperm DNA added as carrier prior to perchloric acid precipitation.
All assays were performed in duplicate.

Another data set has as its system Friend leukemia cells. The data set is described as follows: Growth of Friend leukemia cells treated with phosphorothioate end capped oligomers. Format: cell-based, murine. Further details: dose or concentration left out as unconfirmed. To be noted: concentrations of oligomers. As to the method:
Having established that specific phosphorothioate end capped ODNs retain activity against DNA methyltransferase, their biological effects were examined in intact Friend cells: the biological effects of oligomer A were compared to oligomer B which has no available substrate sites and thus cannot be an inhibitor of DNA methyltransferase, and of oligomer D with oligomer C which has no FC.
A test was conducted to determine if these oligomers affect growth or differentiation of Friend leukemia cells. If growth effects are due to the toxicity of FC released from oligomers, then oligomer A and oligomer B should have equivalent effects and oligomer C should have no effect on growth.
Oligomer C may have a minor effect if it competes with endogenous DNA for DNA methyltransferase binding in a reversible manner. If, however, growth effects are due to a generalized effect of high oligomer concentration, then all oligomers, A, B and C, should affect growth similarly.

Data set [2] relates to bacterial SssI methyltransferase. In words: DNA methylase substrate activity with bacterial SssI enzyme preparation. The class given is biochemical. As to conditions: Table 3; bacterial SssI enzyme preparation; 0.25 μg oligomer; average of 2 expts; background 1351. The source says: They are labeled Sense (S), Antisense (AS), Methylated Antisense 1 (M1) and Methylated Antisense 2 (M2). […] This property of M2 provides an approach to accurately monitoring levels of DNA methyltransferase activity in clinically obtained tissue samples that might otherwise be contaminated by bacteria, since bacterial DNA methyltransferase activity would be excluded as a component of this measurement.
RESULTS ARE AVERAGE OF 2 EXPTS. BACTERIAL SSS1 ENZYME PREPARATION. ASSAYE

Data set [3] concerns murine DNA 5-C-MTase. The data set is described as follows: Methylation assay: methyl transfer from [methyl-3H]AdoMet to ODNs by DNA methyltransferase from Friend erythroleukemia cell nuclei. Format: biochemical. As to conditions: Table 2; enzyme preparation from Friend leukemia cells; 1 μg oligomer; average of 2 expts; background 2691.
Data set [4] concerns the target T1, DNA 5-C-methyltransferase (murine, Friend erythroleukemia cells) (Mus musculus, UniProt P13864 P13864:1-1620). In words: methylation rate; 170 in Table 6, 130 in Table 10. As to conditions: protein: extract; tags: 0.3 M NaCl nuclear extract, 100,000 x g supernatant; single approx. 190 kDa species forming covalent complexes.
For data set [5], the target named is T2, Hha I DNA methyltransferase (UniProt P05102 P05102:1-327).
T2 sequence: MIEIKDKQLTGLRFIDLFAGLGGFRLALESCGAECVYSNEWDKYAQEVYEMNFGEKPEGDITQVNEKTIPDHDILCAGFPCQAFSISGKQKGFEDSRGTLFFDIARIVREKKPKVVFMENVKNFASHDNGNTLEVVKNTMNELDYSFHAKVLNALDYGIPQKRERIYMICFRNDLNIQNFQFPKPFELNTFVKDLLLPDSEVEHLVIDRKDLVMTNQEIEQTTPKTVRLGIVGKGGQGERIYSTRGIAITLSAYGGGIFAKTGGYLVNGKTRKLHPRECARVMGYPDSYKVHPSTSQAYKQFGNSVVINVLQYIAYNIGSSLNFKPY
The data set is described as follows: ss ODNs not substrates at 37 C.

Data set [6] concerns the target T1, DNA 5-C-methyltransferase (murine, …). The data set is described as follows: methylation rate; 128 in Table 10. As to conditions: protein: extract; tags: 0.3 M NaCl nuclear extract, 100,000 x g supernatant; single approx. 190 kDa species forming covalent complexes. The protocol:
(§1) Methylation Assay. Reaction mixtures (50 µl) in 0.1M imidazole, pH 7.4/20 mM EDTA/0.5 mM dithiothreitol contained 0.5 µg of each ODN indicated, ≈0.6 units of DNA 5-C-MTase (1 unit transfers 1 pmol to A (AS)·A'M_p (M1) per min; see Table 7), and 2.8 µCi (1 Ci=37 GBq) of [methyl-^3H]AdoMet (AdoMet=S-adenosylmethionine) (8 µM). Substrate C sites are in excess in the reaction, and methyl transfer is linear for >45 min. For accuracy, methylation rates <5 pmol/30 min were measured in quadrupled reaction mixtures (200 µl). After incubation for 30 min at 37° C., ODNs were processed for quantitation of radiolabel as described (20) with 25 µg of salmon sperm DNA added as carrier prior to perchloric acid precipitation.

Data set [7] has the same target. In words: methylation rate. To be noted: protein: extract; tags: 0.3 M NaCl nuclear extract, 100,000 x g supernatant; single approx. 190 kDa species forming covalent complexes. As to the method:
as §1
(§2) Substitution of C residues with 5FC was used to determine which sites become substrates for enzymatic methylation in A strands containing 5MeC. It has been shown that both bacterial and mammalian DNA 5-C-MTases form stable covalent linkages with 5FC residues in DNA during the process of methylation. Under conditions of substrate excess, this leads to rapid inactivation of the enzymes. […] Thus, 5MeC in position 5 or 7 activates DNA 5-C-MTase to methylate C18 while failing to activate methylation of a C residue only two bases downstream.

Data set [8] has the same target. The data set is described as follows: inhibition; methylation rate; 5FC in substrate site inactivates enzyme. To be noted: protein: extract; tags: 0.3 M NaCl nuclear extract, 100,000 x g supernatant; single approx. 190 kDa species forming covalent complexes. As to the method:
as §1, §2

For data set [9] the target is unchanged. In words: methylation rate. To be noted: protein: extract; tags: 0.3 M NaCl nuclear extract, 100,000 x g supernatant; single approx. 190 kDa species forming covalent complexes. This is another data set of the same source.
The target is the same in data set [10]. In words: methylation rate. To be noted: protein: extract; tags: 0.3 M NaCl nuclear extract, 100,000 x g supernatant; single approx. 190 kDa species forming covalent complexes; potential stem-loop.
Data set [11] has the same target. In words: methylation rate; 150 in Table 10. As to conditions: protein: extract; tags: 0.3 M NaCl nuclear extract, 100,000 x g supernatant; single approx. 190 kDa species forming covalent complexes. The protocol:
as §1

Data set [12] has the same target. In words: inhibition; methylation rate; 3 in Table 6; potent inhibitor. To be noted: protein: extract; tags: 0.3 M NaCl nuclear extract, 100,000 x g supernatant; single approx. 190 kDa species forming covalent complexes.

Bounds are passed on as bounds.

T1 sequence (P13864 whole entry, one chain of several): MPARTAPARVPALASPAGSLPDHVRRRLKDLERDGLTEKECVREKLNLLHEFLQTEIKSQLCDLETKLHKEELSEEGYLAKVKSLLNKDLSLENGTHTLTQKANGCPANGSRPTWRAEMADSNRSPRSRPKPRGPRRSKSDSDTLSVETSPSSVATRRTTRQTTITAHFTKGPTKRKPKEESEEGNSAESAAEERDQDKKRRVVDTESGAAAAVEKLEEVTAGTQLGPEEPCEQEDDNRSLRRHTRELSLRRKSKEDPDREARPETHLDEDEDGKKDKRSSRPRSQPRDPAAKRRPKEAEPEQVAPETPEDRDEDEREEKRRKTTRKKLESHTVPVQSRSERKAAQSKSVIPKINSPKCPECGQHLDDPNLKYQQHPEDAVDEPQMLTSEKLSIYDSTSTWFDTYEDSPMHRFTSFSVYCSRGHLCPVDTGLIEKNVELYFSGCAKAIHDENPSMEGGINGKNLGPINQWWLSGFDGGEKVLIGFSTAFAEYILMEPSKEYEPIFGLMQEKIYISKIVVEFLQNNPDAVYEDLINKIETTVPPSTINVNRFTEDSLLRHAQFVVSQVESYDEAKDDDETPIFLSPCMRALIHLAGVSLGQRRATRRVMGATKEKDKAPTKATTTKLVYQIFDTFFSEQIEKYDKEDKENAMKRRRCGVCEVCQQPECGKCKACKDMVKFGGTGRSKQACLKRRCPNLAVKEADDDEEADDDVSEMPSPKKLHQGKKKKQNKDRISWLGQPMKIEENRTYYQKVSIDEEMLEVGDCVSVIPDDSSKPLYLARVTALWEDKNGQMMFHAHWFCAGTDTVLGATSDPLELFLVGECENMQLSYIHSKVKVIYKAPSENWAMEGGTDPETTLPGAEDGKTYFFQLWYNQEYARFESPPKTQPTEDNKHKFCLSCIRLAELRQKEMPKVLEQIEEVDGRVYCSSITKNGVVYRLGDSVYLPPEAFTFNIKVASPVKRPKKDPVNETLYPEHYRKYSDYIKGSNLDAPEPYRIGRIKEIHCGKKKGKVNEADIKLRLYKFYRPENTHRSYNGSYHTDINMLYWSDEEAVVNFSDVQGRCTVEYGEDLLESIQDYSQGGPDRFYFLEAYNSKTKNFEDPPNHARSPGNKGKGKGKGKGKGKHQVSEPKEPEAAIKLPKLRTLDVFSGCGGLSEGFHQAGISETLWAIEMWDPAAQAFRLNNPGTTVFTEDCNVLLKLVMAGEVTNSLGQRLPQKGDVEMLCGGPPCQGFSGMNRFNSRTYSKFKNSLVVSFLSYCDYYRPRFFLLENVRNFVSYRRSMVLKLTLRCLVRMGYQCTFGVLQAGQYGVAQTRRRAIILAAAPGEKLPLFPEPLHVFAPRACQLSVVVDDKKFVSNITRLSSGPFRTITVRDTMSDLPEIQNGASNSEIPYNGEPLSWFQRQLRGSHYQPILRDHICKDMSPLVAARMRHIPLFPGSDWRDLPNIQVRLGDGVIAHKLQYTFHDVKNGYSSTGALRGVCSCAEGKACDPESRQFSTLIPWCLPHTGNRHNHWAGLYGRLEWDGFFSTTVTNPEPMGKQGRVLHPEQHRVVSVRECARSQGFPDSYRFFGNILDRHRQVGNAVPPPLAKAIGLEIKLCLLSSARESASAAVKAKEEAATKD

Turning to “ATTGCGNATTCCGGATCNGCGATC (phosphorothioate end caps, 5-MeC 7, 5-FC 18, further chemistry not given here) [Oligomer A, phosphorothioate end capped ASM7F18]”, the “inhibition of methylation by incorporation of FC in position 18” value in the data set with murine DNA 5-C-MTase [1] (oligomer A compared with capped ASM7, cell free enzyme assay) is reported as 97%. Also, the “inhibition of growth of Friend leukemia cells (in words)” value in the data set on Friend leukemia cells is “more potent that B”.
Turning to “3' TAACGCGTAAGGCCTAGGCGCTAG 5' (chemistry not given here; listed 3' to 5') [unmethylated sense single-stranded 24mer ODN]”, in the data set with murine DNA 5-C-MTase [1], the “DNA METHYLASE (FL) SUBSTRATE ACTIVITY, ACTIVITY (CPM)” value (“DNA METHYLASE (FL) SUBSTRATE ACTIVITY” below) is given as 1598 CPM. Further, the “DNA METHYLASE SUBSTRATE ACTIVITY, ACTIVITY (CPM)” value (“DNA METHYLASE SUBSTRATE ACTIVITY” for short) in data set [2] is 175225 CPM; in the data set on murine DNA 5-C-MTase [3], 4843 CPM.
“5' ATTGCGCATTCCGGATCCGCGATC 3' (chemistry not given here) [AS, unmethylated antisense single-stranded 24mer ODN]”: in the data set with murine DNA 5-C-MTase [1], the “DNA METHYLASE (FL) SUBSTRATE ACTIVITY” value was determined as 1936 CPM. Moreover, in the data set on murine DNA 5-C-MTase [1] (Table 6, single-stranded ODN), the “RELATIVE ACTIVITY (rate of methylation relative to an equal amount of AS)” value is 1. Also, in the data set on murine DNA 5-C-MTase [1] (Table 10, ss ODNs with 5 mC and 5 FC substitutions), the “RATE (rate of methylation relative to A)” value stood at 1. Also, the “DNA METHYLASE SUBSTRATE ACTIVITY” value is 49282 CPM in data set [2] and 12341 CPM in the data set with murine DNA 5-C-MTase [3].
Turning to “5' ATTGNGCATTCNGGATCNGNGATC 3' (5-methylcytosine at 5, 12, 18, 20, further chemistry not given here) [M1, AS with 5-methylcytosine (N) at 5, 12, 18, 20 (all CpG sites)]”, the “DNA METHYLASE (FL) SUBSTRATE ACTIVITY” value in the data set with murine DNA 5-C-MTase [1] amounted to 1373 CPM. Further, the results for the “DNA METHYLASE SUBSTRATE ACTIVITY” value (in data set [2]; in the data set with murine DNA 5-C-MTase [3]) were 2339 CPM and 5487 CPM, respectively.
As for “ATTGCGNATTCCGGATCCGCGATC (phosphorothioate end caps, 5-methylcytosine 7, further chemistry not given here) [Oligomer C, phosphorothioate end capped ASM7]”, the “inhibition of growth of Friend leukemia cells (in words)” value in the data set with Friend leukemia cells is “no appreciable effect”.
Turning to ATTGCGCATTCCGGATCCGCGATC (ssDNA, 5mC at 7 [5mC at 7]) [ASM7], the binding signal in [4] is 140 relative to A.
For the molecule GATCGCGGATCCGGAATGCGCAAT (ssDNA) [S (A')], in data set [5], the binding result was “no binding”.
ATTGCGCATTCCGGATCCGCGATC (ssDNA, 5mC at 7,11,17 [5mC at 7,11,17]) [M2 (AMx)]: in data set [6], the binding signal is 130 relative to A.
As for ATTGCGCATTCCGGATCCGCGATC (ssDNA, 5mC at 7; 5-fluoro-C at 20 [5mC at 7; 5-fluoro-C at 20]) [ASM7 F20], the binding signal in data set [7] was 160 relative to A.
As to ATTGCGCATTCCGGATCCGCGATC (ssDNA, 5mC at 5; 5-fluoro-C at 18) [ASM5 F18], the binding signal in [8] was 1 relative to A.
Still for that read-out and setting: for ATTGCGCATTCCGGATCCGCGATC (ssDNA, 5mC at 7,11,17; 5-fluoro-C at 18 [5mC at 7,11,17; 5-fluoro-C at 18]) [AMx F18] the value was 2 relative to A.
With ATTGCGCATTCCGGATCCGCGATC (ssDNA, 5mC at 7,11,17; 5-fluoro-C at 5 [5mC at 7,11,17; 5-fluoro-C at 5]) [AMx F5], the binding signal in data set [7] was 170 relative to A.
As to ATTGCGCATTCCGGATCCGCGATC (ssDNA) [AS (A)], the binding result in data set [5] is recorded as “no binding”.
As for ATTGCGCATTCCGGATCCGCGATC (ssDNA, 5mC at 7,11,17; 5-fluoro-C at 20 [5mC at 7,11,17; 5-fluoro-C at 20]) [AMx F20], the binding signal in data set [7] is 168 relative to A.
For GATCGCGGATCCGGAATGCGCAAT (ssDNA, 5mC at 6,19) [A' 5mC6,19], the binding signal in data set [9] was 1 relative to A.
On to ATTGCGCATTCCGGATCCGCGATC (ssDNA, 5mC at 7,11,17; 5-fluoro-C at 12 [5mC at 7,11,17; 5-fluoro-C at 12]) [AMx F12], for which the binding signal in data set [7] was 165 relative to A.
With ATGACGCACCTCGTTGACGCGCTA (ssDNA, 5mC at 7) [structure 6 ODN], the binding signal in data set [10] is > 300 relative to A.
On to ATTGCGCATTCCGGATCCGCGATC (ssDNA, 5mC at 5) [ASM5], for which the binding signal in data set [11] is 175 relative to A.
Take ATTGCGCATTCCGGATCCGCGATC (ssDNA, 5mC at 5; 5-fluoro-C at 20) [ASM5 F20]: the binding signal in data set [7] is 152 relative to A.
Take ATTGCGCATTCCGGATCCGCGATC (ssDNA, 5mC at 7; 5-fluoro-C at 18 [5mC at 7; 5-fluoro-C at 18]) [ASM7 F18]: the binding signal in [12] is 3.2 relative to A.

These data come from patent US5652105A, “Substrate for detection of mammalian 5-C-DNA methyltransferase” (Health Research, Inc., priority 1995, dated 1997).
